Source: US20230381229A1 (ALPINE IMMUNE SCIENCES, INC., published 2023)

T1: TIGIT (human)
T1 chain: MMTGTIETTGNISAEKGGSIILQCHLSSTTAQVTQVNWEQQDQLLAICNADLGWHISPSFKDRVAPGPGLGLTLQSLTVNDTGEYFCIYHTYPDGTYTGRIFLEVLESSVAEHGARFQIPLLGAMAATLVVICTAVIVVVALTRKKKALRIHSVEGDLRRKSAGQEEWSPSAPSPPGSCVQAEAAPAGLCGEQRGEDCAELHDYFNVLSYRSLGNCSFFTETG


Biological target: T1, TIGIT
Assay: cell-based or functional assay

IL-2 luciferase reporter, Normalized Fold Change from CD155-ECD	Binder
2.1 fold	variant CD155 IgV-Fc P18T, S52A, V57A, Q60R, Q62K, S65C, L79P, F91T, N100Y, T107M (Fc fusion) WPPPGTGDVVVQAPTQVTGFLGDSVTLPCYLQVPNMEVTHVSQLTWARHGEAGSMAAFHRTKGPCYSESKRLEFVAARPGAELRNASLRMTGLRVEDEGYYTCLFVMFPQGSRSVDIWLRVLGSGGGGSEPKSSDKTHTCPPCPAPEAEGAPSVFLFPPKPKDTLMISRTPEVTCVVVDVSHEDPEVKFNWYVDGVEVHNAKTKPREEQYNSTYRVVSVLTVLHQDWLNGKEYKCKVSNKALPAPIEKTISKAKGQPREPQVYTLPPSRDELTKNQVSLTCLVKGFYPSDIAVEWESNGQPENNYKTTPPVLDSDGSFFLYSKLTVDKSRWQQGNVFSCSVMHEALHNHYTQKSLSLSPGK
-0.6 fold	variant CD155 IgV-Fc V11E, P18H, F20Y, V25E, N35S, H49R, L79P, F91S, T107M, G111R (Fc fusion) WPPPGTGDVVEQAPTQVHGYLGDSETLPCYLQVPSMEVTHVSQLTWARRGESGSMAVFHQTQGPSYSESKRLEFVAARPGAELRNASLRMSGLRVEDEGNYTCLFVMFPQRSRSVDIWLRVLGSGGGGSEPKSSDKTHTCPPCPAPEAEGAPSVFLFPPKPKDTLMISRTPEVTCVVVDVSHEDPEVKFNWYVDGVEVHNAKTKPREEQYNSTYRVVSVLTVLHQDWLNGKEYKCKVSNKALPAPIEKTISKAKGQPREPQVYTLPPSRDELTKNQVSLTCLVKGFYPSDIAVEWESNGQPENNYKTTPPVLDSDGSFFLYSKLTVDKSRWQQGNVFSCSVMHEALHNHYTQKSLSLSPGK
2.1 fold	variant CD155 IgV-Fc V11A, P18T, N35S, L79P, S87T, F91S (Fc fusion) WPPPGTGDVVAQAPTQVTGFLGDSVTLPCYLQVPSMEVTHVSQLTWARHGESGSMAVFHQTQGPSYSESKRLEFVAARPGAELRNATLRMSGLRVEDEGNYTCLFVTFPQGSRSVDIWLRVLGSGGGGSEPKSSDKTHTCPPCPAPEAEGAPSVFLFPPKPKDTLMISRTPEVTCVVVDVSHEDPEVKFNWYVDGVEVHNAKTKPREEQYNSTYRVVSVLTVLHQDWLNGKEYKCKVSNKALPAPIEKTISKAKGQPREPQVYTLPPSRDELTKNQVSLTCLVKGFYPSDIAVEWESNGQPENNYKTTPPVLDSDGSFFLYSKLTVDKSRWQQGNVFSCSVMHEALHNHYTQKSLSLSPGK
4 fold	variant CD155 IgV-Fc V9I, P18T, H49R, L79P, N85D, F91S, L104T, T107M (Fc fusion) WPPPGTGDIVVQAPTQVTGFLGDSVTLPCYLQVPNMEVTHVSQLTWARRGESGSMAVFHQTQGPSYSESKRLEFVAARPGAELRDASLRMSGLRVEDEGNYTCTFVMFPQGSRSVDIWLRVLGSGGGGSEPKSSDKTHTCPPCPAPEAEGAPSVFLFPPKPKDTLMISRTPEVTCVVVDVSHEDPEVKFNWYVDGVEVHNAKTKPREEQYNSTYRVVSVLTVLHQDWLNGKEYKCKVSNKALPAPIEKTISKAKGQPREPQVYTLPPSRDELTKNQVSLTCLVKGFYPSDIAVEWESNGQPENNYKTTPPVLDSDGSFFLYSKLTVDKSRWQQGNVFSCSVMHEALHNHYTQKSLSLSPGK
1.3 fold	variant CD155 IgV-Fc V9A, P18F, T61S, Q62L, L79P, F91S, G111R (Fc fusion) WPPPGTGDAVVQAPTQVFGFLGDSVTLPCYLQVPNMEVTHVSQLTWARHGESGSMAVFHQSLGPSYSESKRLEFVAARPGAELRNASLRMSGLRVEDEGNYTCLFVTFPQRSRSVDIWLRVLGSGGGGSEPKSSDKTHTCPPCPAPEAEGAPSVFLFPPKPKDTLMISRTPEVTCVVVDVSHEDPEVKFNWYVDGVEVHNAKTKPREEQYNSTYRVVSVLTVLHQDWLNGKEYKCKVSNKALPAPIEKTISKAKGQPREPQVYTLPPSRDELTKNQVSLTCLVKGFYPSDIAVEWESNGQPENNYKTTPPVLDSDGSFFLYSKLTVDKSRWQQGNVFSCSVMHEALHNHYTQKSLSLSPGK
-1 fold	variant CD155 IgV-Fc P18S, V41A, H49R, S54C, L79S, N85Y, L88P, F91S, L104M, T107M (Fc fusion) WPPPGTGDVVVQAPTQVSGFLGDSVTLPCYLQVPNMEVTHASQLTWARRGESGCMAVFHQTQGPSYSESKRLEFVAARSGAELRYASPRMSGLRVEDEGNYTCMFVMFPQGSRSVDIWLRVLGSGGGGSEPKSSDKTHTCPPCPAPEAEGAPSVFLFPPKPKDTLMISRTPEVTCVVVDVSHEDPEVKFNWYVDGVEVHNAKTKPREEQYNSTYRVVSVLTVLHQDWLNGKEYKCKVSNKALPAPIEKTISKAKGQPREPQVYTLPPSRDELTKNQVSLTCLVKGFYPSDIAVEWESNGQPENNYKTTPPVLDSDGSFFLYSKLTVDKSRWQQGNVFSCSVMHEALHNHYTQKSLSLSPGK
1.2 fold	variant CD155 IgV-Fc V9L, P18Y, V25A, V38G, M55V, A77T, L79P, M90I, F91S, L104M (Fc fusion) WPPPGTGDLVVQAPTQVYGFLGDSATLPCYLQVPNMEGTHVSQLTWARHGESGSVAVFHQTQGPSYSESKRLEFVATRPGAELRNASLRISGLRVEDEGNYTCMFVTFPQGSRSVDIWLRVLGSGGGGSEPKSSDKTHTCPPCPAPEAEGAPSVFLFPPKPKDTLMISRTPEVTCVVVDVSHEDPEVKFNWYVDGVEVHNAKTKPREEQYNSTYRVVSVLTVLHQDWLNGKEYKCKVSNKALPAPIEKTISKAKGQPREPQVYTLPPSRDELTKNQVSLTCLVKGFYPSDIAVEWESNGQPENNYKTTPPVLDSDGSFFLYSKLTVDKSRWQQGNVFSCSVMHEALHNHYTQKSLSLSPGK

Biological target: T1, TIGIT
Assay: cell-based or functional assay
Remark: another data set of the same source

IL-2 luciferase reporter, Normalized Fold Change from CD155-ECD, proteins at 50 nM	Binder
5 fold	variant CD155 IgV-Fc P18S, A47G, L79P, F91S, L104M, T107A, R113W (Fc fusion) WPPPGTGDVVVQAPTQVSGFLGDSVTLPCYLQVPNMEVTHVSQLTWGRHGESGSMAVFHQTQGPSYSESKRLEFVAARPGAELRNASLRMSGLRVEDEGNYTCMFVAFPQGSWSVDIWLRVLGSGGGGSEPKSSDKTHTCPPCPAPEAEGAPSVFLFPPKPKDTLMISRTPEVTCVVVDVSHEDPEVKFNWYVDGVEVHNAKTKPREEQYNSTYRVVSVLTVLHQDWLNGKEYKCKVSNKALPAPIEKTISKAKGQPREPQVYTLPPSRDELTKNQVSLTCLVKGFYPSDIAVEWESNGQPENNYKTTPPVLDSDGSFFLYSKLTVDKSRWQQGNVFSCSVMHEALHNHYTQKSLSLSPGK
1.8 fold	variant CD155 IgV-Fc V9L, P18S, Q60R, V75L, L79P, R89K, F91S, L104E, G111R (Fc fusion) WPPPGTGDLVVQAPTQVSGFLGDSVTLPCYLQVPNMEVTHVSQLTWARHGESGSMAVFHRTQGPSYSESKRLEFLAARPGAELRNASLKMSGLRVEDEGNYTCEFVTFPQRSRSVDIWLRVLGSGGGGSEPKSSDKTHTCPPCPAPEAEGAPSVFLFPPKPKDTLMISRTPEVTCVVVDVSHEDPEVKFNWYVDGVEVHNAKTKPREEQYNSTYRVVSVLTVLHQDWLNGKEYKCKVSNKALPAPIEKTISKAKGQPREPQVYTLPPSRDELTKNQVSLTCLVKGFYPSDIAVEWESNGQPENNYKTTPPVLDSDGSFFLYSKLTVDKSRWQQGNVFSCSVMHEALHNHYTQKSLSLSPGK
4.1 fold	variant CD155 IgV-Fc P18T, M36T, L79P, F91S, G111R (Fc fusion) WPPPGTGDVVVQAPTQVTGFLGDSVTLPCYLQVPNTEVTHVSQLTWARHGESGSMAVFHQTQGPSYSESKRLEFVAARPGAELRNASLRMSGLRVEDEGNYTCLFVTFPQRSRSVDIWLRVLGSGGGGSEPKSSDKTHTCPPCPAPEAEGAPSVFLFPPKPKDTLMISRTPEVTCVVVDVSHEDPEVKFNWYVDGVEVHNAKTKPREEQYNSTYRVVSVLTVLHQDWLNGKEYKCKVSNKALPAPIEKTISKAKGQPREPQVYTLPPSRDELTKNQVSLTCLVKGFYPSDIAVEWESNGQPENNYKTTPPVLDSDGSFFLYSKLTVDKSRWQQGNVFSCSVMHEALHNHYTQKSLSLSPGK
2.6 fold	variant CD155 IgV-Fc V11A, P18S, S54R, Q60P, Q62K, L79P, N85D, F91S, T107M (Fc fusion) WPPPGTGDVVAQAPTQVSGFLGDSVTLPCYLQVPNMEVTHVSQLTWARHGESGRMAVFHPTKGPSYSESKRLEFVAARPGAELRDASLRMSGLRVEDEGNYTCLFVMFPQGSRSVDIWLRVLGSGGGGSEPKSSDKTHTCPPCPAPEAEGAPSVFLFPPKPKDTLMISRTPEVTCVVVDVSHEDPEVKFNWYVDGVEVHNAKTKPREEQYNSTYRVVSVLTVLHQDWLNGKEYKCKVSNKALPAPIEKTISKAKGQPREPQVYTLPPSRDELTKNQVSLTCLVKGFYPSDIAVEWESNGQPENNYKTTPPVLDSDGSFFLYSKLTVDKSRWQQGNVFSCSVMHEALHNHYTQKSLSLSPGK
0.4 fold	variant CD155 IgV-Fc V11A, P18S, L79P, F91S, L104M, G111R (Fc fusion) WPPPGTGDVVAQAPTQVSGFLGDSVTLPCYLQVPNMEVTHVSQLTWARHGESGSMAVFHQTQGPSYSESKRLEFVAARPGAELRNASLRMSGLRVEDEGNYTCMFVTFPQRSRSVDIWLRVLGSGGGGSEPKSSDKTHTCPPCPAPEAEGAPSVFLFPPKPKDTLMISRTPEVTCVVVDVSHEDPEVKFNWYVDGVEVHNAKTKPREEQYNSTYRVVSVLTVLHQDWLNGKEYKCKVSNKALPAPIEKTISKAKGQPREPQVYTLPPSRDELTKNQVSLTCLVKGFYPSDIAVEWESNGQPENNYKTTPPVLDSDGSFFLYSKLTVDKSRWQQGNVFSCSVMHEALHNHYTQKSLSLSPGK
3.6 fold	variant CD155 IgV-Fc P18T, S52P, S65A, S67V, L79P, F91S, L104M, G111R (Fc fusion) WPPPGTGDVVVQAPTQVTGFLGDSVTLPCYLQVPNMEVTHVSQLTWARHGEPGSMAVFHQTQGPAYVESKRLEFVAARPGAELRNASLRMSGLRVEDEGNYTCMFVTFPQRSRSVDIWLRVLGSGGGGSEPKSSDKTHTCPPCPAPEAEGAPSVFLFPPKPKDTLMISRTPEVTCVVVDVSHEDPEVKFNWYVDGVEVHNAKTKPREEQYNSTYRVVSVLTVLHQDWLNGKEYKCKVSNKALPAPIEKTISKAKGQPREPQVYTLPPSRDELTKNQVSLTCLVKGFYPSDIAVEWESNGQPENNYKTTPPVLDSDGSFFLYSKLTVDKSRWQQGNVFSCSVMHEALHNHYTQKSLSLSPGK
3.2 fold	variant CD155 IgV-Fc P18T, D23G, S24A, N35D, H49L, L79P, F91S, L104M, G111R (Fc fusion) WPPPGTGDVVVQAPTQVTGFLGGAVTLPCYLQVPDMEVTHVSQLTWARLGESGSMAVFHQTQGPSYSESKRLEFVAARPGAELRNASLRMSGLRVEDEGNYTCMFVTFPQRSRSVDIWLRVLGSGGGGSEPKSSDKTHTCPPCPAPEAEGAPSVFLFPPKPKDTLMISRTPEVTCVVVDVSHEDPEVKFNWYVDGVEVHNAKTKPREEQYNSTYRVVSVLTVLHQDWLNGKEYKCKVSNKALPAPIEKTISKAKGQPREPQVYTLPPSRDELTKNQVSLTCLVKGFYPSDIAVEWESNGQPENNYKTTPPVLDSDGSFFLYSKLTVDKSRWQQGNVFSCSVMHEALHNHYTQKSLSLSPGK
